The values that follow come from the supplement of paper PMC7125110.

± gives the standard error. For some of these results: This sample holds only a part of the variants without activity.

B1: glmS ribozyme (parent)
chain: AUAAAAGCGCCAGAACUACAGAAAUGUAGUUGACGAGGAGGAGGUUUAUCGAAUUUUCGGCGGAUGCCUCCAAA

Holding throughout (conditions): with glucosamine-6-phosphate
Variants of B1 are the subject of data set [1]. The data set can be described thus: kcat; higher = faster cleavage; RNA array. In outline: (§1)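 In situ transcription by E. coli RNA polymerase produced barcoded ribozyme variants on sequenced MiSeq chips, and a hybridised Cy3 probe tracked them at 37 °C. Glucosamine-6-phosphate was flowed in at 40 μM to 10 mM in HEPES/KCl/Mg(OAc)2 buffer. kcat and KM were taken from weighted Michaelis–Menten fits of kobs values from exponential decay fits.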

The variants in data set [2] derive from B1. As to the kind of experiment: KM; higher = weaker cofactor use; RNA array. In outline:
as §1

Data set [3] covers variants of B1. The data set can be described thus: self-cleavage kobs at 40 uM GlcN6P; higher = faster cleavage; RNA array. The gist of the method: as §1
Variants of B1 are the subject of data set [4]. The data set can be described thus: self-cleavage kobs at 160 uM GlcN6P; higher = faster cleavage; RNA array. The gist of the method: as §1
Variants of B1 are the subject of data set [5]. As to the kind of experiment: self-cleavage kobs at 640 uM GlcN6P; higher = faster cleavage; RNA array. The gist of the method: as §1
Variants of B1 are the subject of data set [6]. As to the kind of experiment: self-cleavage kobs at 2500 uM GlcN6P; higher = faster cleavage; RNA array. In outline: as §1
Data set [7] covers variants of B1. The data set can be described thus: self-cleavage kobs at 10000 uM GlcN6P; higher = faster cleavage; RNA array. The gist of the method: as §1

For A14G U56A, the kcat with glucosamine-6-phosphate [1] stood at 0.121 ± 0.022 s⁻¹. For the same variant, the KM with glucosamine-6-phosphate [2] turned out to be 1930 ± 400 µM. For the same variant, the “self-cleavage kobs at 40 uM GlcN6P” value with glucosamine-6-phosphate [3] was determined as 0.00249 ± 0.00036 s⁻¹. The “self-cleavage kobs at 160 uM GlcN6P” value in the data set with glucosamine-6-phosphate [4] came out at 0.00984 ± 0.0021 s⁻¹. In addition, the “self-cleavage kobs at 640 uM GlcN6P” value with glucosamine-6-phosphate [5] came out at 0.0275 ± 0.0058 s⁻¹. The “self-cleavage kobs at 2500 uM GlcN6P” value with glucosamine-6-phosphate [6] was determined as 0.0642 ± 0.024 s⁻¹. In the data set with glucosamine-6-phosphate [7], the “self-cleavage kobs at 10000 uM GlcN6P” value was determined as 0.126 ± 0.053 s⁻¹.
As to G9A G13C U30G G63U U69G, the kcat with glucosamine-6-phosphate [1] is under 1e-05 s⁻¹. In addition, in the data set with glucosamine-6-phosphate [3], the “self-cleavage kobs at 40 uM GlcN6P” value is under 1e-05 s⁻¹. Moreover, the “self-cleavage kobs at 2500 uM GlcN6P” value with glucosamine-6-phosphate [6] was under 1e-05 s⁻¹.
As for A15U U54C, in the data set with glucosamine-6-phosphate [1], the kcat was found to be 0.00568 ± 0.0015 s⁻¹. Further, the KM with glucosamine-6-phosphate [2] turned out to be 1560 ± 660 µM. Moreover, the “self-cleavage kobs at 40 uM GlcN6P” value with glucosamine-6-phosphate [3] was determined as 0.000186 ± 2.3e-05 s⁻¹. The “self-cleavage kobs at 160 uM GlcN6P” value with glucosamine-6-phosphate [4] came out at 0.000292 ± 0.0001 s⁻¹. Further, the “self-cleavage kobs at 640 uM GlcN6P” value with glucosamine-6-phosphate [5] is 0.00189 ± 0.0003 s⁻¹. In addition, the “self-cleavage kobs at 2500 uM GlcN6P” value with glucosamine-6-phosphate [6] is 0.00297 ± 0.00042 s⁻¹. For the same variant, the “self-cleavage kobs at 10000 uM GlcN6P” value with glucosamine-6-phosphate [7] came to 0.00553 ± 0.00066 s⁻¹.
As to U30G U46A, the kcat with glucosamine-6-phosphate [1] came out at 0.000655 ± 7e-05 s⁻¹. Further, in the data set with glucosamine-6-phosphate [2], the KM is 3710 ± 930 µM. In the data set with glucosamine-6-phosphate [6], the “self-cleavage kobs at 2500 uM GlcN6P” value stood at 0.000252 ± 5.8e-05 s⁻¹. For the same variant, in the data set with glucosamine-6-phosphate [7], the “self-cleavage kobs at 10000 uM GlcN6P” value is 0.000483 ± 6.6e-05 s⁻¹.
As for C16U C50G A53U U55A, in the data set with glucosamine-6-phosphate [1], the catalytic constant (kcat) worked out at 3.66e-05 ± 1e-05 s⁻¹. Also, in the data set with glucosamine-6-phosphate [5], the “self-cleavage kobs at 640 uM GlcN6P” value is 4.65e-05 ± 2.2e-05 s⁻¹.
Turning to G41U U55G, the kcat with glucosamine-6-phosphate [1] was found to be 0.000303 ± 5.3e-05 s⁻¹. Also, the “self-cleavage kobs at 40 uM GlcN6P” value with glucosamine-6-phosphate [3] stood at 3.39e-05 ± 1.1e-05 s⁻¹. For the same variant, in the data set with glucosamine-6-phosphate [4], the “self-cleavage kobs at 160 uM GlcN6P” value was determined as 9.74e-05 ± 2.6e-05 s⁻¹. In addition, the “self-cleavage kobs at 640 uM GlcN6P” value in the data set with glucosamine-6-phosphate [5] is 0.000276 ± 3.9e-05 s⁻¹. The “self-cleavage kobs at 2500 uM GlcN6P” value with glucosamine-6-phosphate [6] came to 0.000419 ± 7.2e-05 s⁻¹. In addition, in the data set with glucosamine-6-phosphate [7], the “self-cleavage kobs at 10000 uM GlcN6P” value worked out at 0.000252 ± 3.2e-05 s⁻¹.
Regarding A52C C68U, in the data set with glucosamine-6-phosphate [1], the kcat is 1.28e-05 ± 5.9e-07 s⁻¹. Moreover, in the data set with glucosamine-6-phosphate [2], the KM came to 249 ± 86 µM. The “self-cleavage kobs at 40 uM GlcN6P” value in the data set with glucosamine-6-phosphate [3] was under 1e-05 s⁻¹.
Take U31G A36C: in the data set with glucosamine-6-phosphate [1], the kcat was under 1e-05 s⁻¹. Also, the “self-cleavage kobs at 160 uM GlcN6P” value with glucosamine-6-phosphate [4] was under 1e-05 s⁻¹. In the data set with glucosamine-6-phosphate [7], the “self-cleavage kobs at 10000 uM GlcN6P” value is under 1e-05 s⁻¹.
With A12U G40A C71U, the kcat with glucosamine-6-phosphate [1] stood at 0.101 ± 0.05 s⁻¹. The “self-cleavage kobs at 40 uM GlcN6P” value with glucosamine-6-phosphate [3] is 0.00209 ± 0.0003 s⁻¹. Further, the “self-cleavage kobs at 640 uM GlcN6P” value with glucosamine-6-phosphate [5] came out at 0.0194 ± 0.007 s⁻¹. In addition, the “self-cleavage kobs at 10000 uM GlcN6P” value with glucosamine-6-phosphate [7] was found to be 0.116 ± 0.047 s⁻¹.
Turning to U31G C67G, the kcat with glucosamine-6-phosphate [1] was determined as 0.000557 ± 2.6e-05 s⁻¹. For the same variant, the KM with glucosamine-6-phosphate [2] came to 1760 ± 150 µM. Besides, in the data set with glucosamine-6-phosphate [4], the “self-cleavage kobs at 160 uM GlcN6P” value turned out to be 4.63e-05 ± 8.1e-06 s⁻¹. For the same variant, the “self-cleavage kobs at 640 uM GlcN6P” value in the data set with glucosamine-6-phosphate [5] was determined as 0.00015 ± 1.7e-05 s⁻¹. In addition, the “self-cleavage kobs at 2500 uM GlcN6P” value with glucosamine-6-phosphate [6] came to 0.000303 ± 5.8e-05 s⁻¹. Moreover, the “self-cleavage kobs at 10000 uM GlcN6P” value with glucosamine-6-phosphate [7] was 0.00048 ± 4.6e-05 s⁻¹.
Consider C16G G41C, for which the kcat with glucosamine-6-phosphate [1] worked out at 2.59e-05 ± 7.1e-06 s⁻¹. The “self-cleavage kobs at 40 uM GlcN6P” value in the data set with glucosamine-6-phosphate [3] is under 1e-05 s⁻¹. Besides, in the data set with glucosamine-6-phosphate [4], the “self-cleavage kobs at 160 uM GlcN6P” value was under 1e-05 s⁻¹.
For the variant U30G U45G, the kcat in the data set with glucosamine-6-phosphate [1] stood at 0.00151 ± 0.00041 s⁻¹. In addition, the KM in the data set with glucosamine-6-phosphate [2] was 2200 ± 950 µM. In addition, the “self-cleavage kobs at 40 uM GlcN6P” value with glucosamine-6-phosphate [3] worked out at 3.05e-05 ± 1.4e-05 s⁻¹. Moreover, the “self-cleavage kobs at 160 uM GlcN6P” value in the data set with glucosamine-6-phosphate [4] amounted to 7.13e-05 ± 2.2e-05 s⁻¹. Moreover, the “self-cleavage kobs at 640 uM GlcN6P” value with glucosamine-6-phosphate [5] worked out at 0.000382 ± 6.4e-05 s⁻¹. In the data set with glucosamine-6-phosphate [6], the “self-cleavage kobs at 2500 uM GlcN6P” value is 0.00102 ± 0.00015 s⁻¹. In addition, the “self-cleavage kobs at 10000 uM GlcN6P” value with glucosamine-6-phosphate [7] amounted to 0.00103 ± 0.00021 s⁻¹.
Regarding U49G A64G, the kcat in the data set with glucosamine-6-phosphate [1] is 0.00241 ± 0.00088 s⁻¹. Besides, the “self-cleavage kobs at 40 uM GlcN6P” value with glucosamine-6-phosphate [3] was 6.16e-05 ± 1e-05 s⁻¹. For the same variant, the “self-cleavage kobs at 160 uM GlcN6P” value with glucosamine-6-phosphate [4] amounted to 0.00015 ± 4.1e-05 s⁻¹. The “self-cleavage kobs at 640 uM GlcN6P” value in the data set with glucosamine-6-phosphate [5] is 0.000414 ± 6.7e-05 s⁻¹. Besides, the “self-cleavage kobs at 2500 uM GlcN6P” value in the data set with glucosamine-6-phosphate [6] worked out at 0.000922 ± 0.00016 s⁻¹. In addition, the “self-cleavage kobs at 10000 uM GlcN6P” value with glucosamine-6-phosphate [7] worked out at 0.00232 ± 0.0003 s⁻¹.
On to G32U U55G, for which, in the data set with glucosamine-6-phosphate [1], the kcat came to 0.000798 ± 0.0002 s⁻¹. Besides, the KM with glucosamine-6-phosphate [2] stood at 3110 ± 1400 µM. Besides, in the data set with glucosamine-6-phosphate [5], the “self-cleavage kobs at 640 uM GlcN6P” value was 0.000151 ± 2.5e-05 s⁻¹. In addition, the “self-cleavage kobs at 2500 uM GlcN6P” value in the data set with glucosamine-6-phosphate [6] was determined as 0.000274 ± 6.5e-05 s⁻¹. The “self-cleavage kobs at 10000 uM GlcN6P” value with glucosamine-6-phosphate [7] is 0.000652 ± 9e-05 s⁻¹.
For A14G A39U, the kcat in the data set with glucosamine-6-phosphate [1] worked out at 0.0511 ± 0.013 s⁻¹. Further, the KM in the data set with glucosamine-6-phosphate [2] stood at 1450 ± 480 µM. The “self-cleavage kobs at 40 uM GlcN6P” value with glucosamine-6-phosphate [3] is 0.00167 ± 0.00051 s⁻¹. For the same variant, the “self-cleavage kobs at 160 uM GlcN6P” value in the data set with glucosamine-6-phosphate [4] stood at 0.00416 ± 0.0013 s⁻¹. Further, the “self-cleavage kobs at 640 uM GlcN6P” value with glucosamine-6-phosphate [5] was 0.0183 ± 0.0062 s⁻¹. Moreover, in the data set with glucosamine-6-phosphate [6], the “self-cleavage kobs at 2500 uM GlcN6P” value came to 0.0365 ± 0.014 s⁻¹. Besides, the “self-cleavage kobs at 10000 uM GlcN6P” value with glucosamine-6-phosphate [7] was found to be 0.0395 ± 0.019 s⁻¹.

A word on the kcat: it is the maximal rate divided by the concentration of active sites. As usually defined, the KM is the concentration of substrate that gives half-maximal velocity.
